Values of other authors, collected in PMC11139829.
Where “and” joins values, the source holds several entries; their conditions need not be identical. Equal values may be shown once. Read-outs that look alike come from different tables or passages of the source.

What was measured:
[1] = molecular target: β-clamp (Escherichia coli) (UniProt P0A988)
[2] = molecular target: β-clamp (Escherichia coli) (UniProt P0A988); assay: SPR
[3] = molecular target: β-clamp (Escherichia coli) (UniProt P0A988); assay: ITC
[4] = molecular target: β-clamp (Escherichia coli) (UniProt P0A988); assay: ITC; remark: listed apart in the source
[5] = molecular target: β-clamp (Escherichia coli) (UniProt P0A988); assay: Fluorescence
[6] = molecular target: β-clamp (Escherichia coli) (UniProt P0A988); assay: ITC; remark: listed apart in the source
[7] = molecular target: β-clamp (Escherichia coli) (UniProt P0A988); assay: SEC

Chain of UniProt P0A988 (P0A988 whole entry): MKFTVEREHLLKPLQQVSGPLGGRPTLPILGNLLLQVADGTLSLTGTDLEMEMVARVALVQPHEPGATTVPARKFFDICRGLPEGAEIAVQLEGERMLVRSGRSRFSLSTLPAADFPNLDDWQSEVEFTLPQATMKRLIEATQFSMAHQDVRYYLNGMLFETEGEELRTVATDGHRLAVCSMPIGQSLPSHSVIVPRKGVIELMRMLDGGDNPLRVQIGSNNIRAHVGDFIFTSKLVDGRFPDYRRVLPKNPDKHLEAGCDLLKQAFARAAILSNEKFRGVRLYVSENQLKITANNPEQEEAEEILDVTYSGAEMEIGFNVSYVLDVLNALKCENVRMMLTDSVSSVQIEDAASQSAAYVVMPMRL
Chain of Pol III α (P10443 whole entry): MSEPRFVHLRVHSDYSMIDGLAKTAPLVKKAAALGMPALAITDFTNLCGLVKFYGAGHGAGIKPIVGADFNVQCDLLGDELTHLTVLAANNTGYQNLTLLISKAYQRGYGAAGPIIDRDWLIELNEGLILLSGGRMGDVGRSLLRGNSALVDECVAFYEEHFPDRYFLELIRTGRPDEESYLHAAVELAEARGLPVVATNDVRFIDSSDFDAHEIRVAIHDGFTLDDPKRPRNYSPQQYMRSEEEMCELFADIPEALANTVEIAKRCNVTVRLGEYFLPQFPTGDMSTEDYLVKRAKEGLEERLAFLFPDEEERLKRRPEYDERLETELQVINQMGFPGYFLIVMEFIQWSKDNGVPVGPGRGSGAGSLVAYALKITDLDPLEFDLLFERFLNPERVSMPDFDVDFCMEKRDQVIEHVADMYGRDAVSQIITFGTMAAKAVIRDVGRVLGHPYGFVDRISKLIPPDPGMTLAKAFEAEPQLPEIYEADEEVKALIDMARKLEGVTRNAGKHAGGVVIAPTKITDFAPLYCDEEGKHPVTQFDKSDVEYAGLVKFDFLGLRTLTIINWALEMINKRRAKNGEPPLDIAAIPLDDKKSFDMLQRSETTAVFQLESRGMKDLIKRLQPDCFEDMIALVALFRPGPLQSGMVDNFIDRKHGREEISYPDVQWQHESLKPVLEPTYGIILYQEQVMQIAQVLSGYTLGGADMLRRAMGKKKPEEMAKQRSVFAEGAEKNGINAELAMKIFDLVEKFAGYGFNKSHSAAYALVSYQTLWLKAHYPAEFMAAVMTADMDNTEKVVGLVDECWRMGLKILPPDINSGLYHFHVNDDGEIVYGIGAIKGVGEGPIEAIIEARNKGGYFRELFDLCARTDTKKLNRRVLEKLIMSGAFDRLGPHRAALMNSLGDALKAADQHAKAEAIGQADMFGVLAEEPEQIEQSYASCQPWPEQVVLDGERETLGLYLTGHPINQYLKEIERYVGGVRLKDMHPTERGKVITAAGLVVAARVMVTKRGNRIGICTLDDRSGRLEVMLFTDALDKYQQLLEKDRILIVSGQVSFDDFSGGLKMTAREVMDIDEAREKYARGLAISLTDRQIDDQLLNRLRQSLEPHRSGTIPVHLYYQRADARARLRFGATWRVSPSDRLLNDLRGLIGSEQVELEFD

Pol II (from UniProt P21189)
Kd [1]: 120 nM
Kd [2]: 31.6 nM

Pol III α C-terminal CBM peptide
Kd [3]: 1420 nM
Kd [4]: 3060 nM
Kd [5]: 3200 nM and 3000 nM
Kd [6]: 3950 nM

Pol III α (from UniProt P10443)
Kd [3]: 1500 nM
Kd [2]: 108 nM and 800 nM
Kd [7]: 1200 nM
Kd [5]: 110 nM

Pol III ε peptide
Kd [2]: 210000 nM

Pol III α + ε (from UniProt P10443)
Kd [7]: 300 nM

Pol II CBM peptide
Kd [3]: 1700 nM
Kd [5]: 3500 nM

Pol III core (from UniProt P10443)
Kd [7]: < 5 nM
Kd [5]: 51 nM and 50 nM

Pol III α internal CBM peptide
Kd [3]: > 15000 nM
Kd [2]: 2700 nM
